These results are taken from FireProtDB (doi:10.1021/bi992257j).

First the molecules themselves.
B1: Rubredoxin, P24297 (parent)
chain: MAKWVCKICGYIYDEDAGDPDNGISPGTKFEELPDDWVCPICGAPKSEFEKLED

In the data set the parent is B1. Particulars: Pyrococcus furiosus (strain ATCC 43587 / DSM 3638 / JCM 8422 / Vc1), pH 6.3, CD, Sodium phosphate 50 mM, reversible: yes, structure 1BRF, whole UniProt chain shown; for denaturant m value / denaturant midpoint (higher = more stable) / unfolding free energy: 1 °C; for Tm: Thermal.

By Tm is commonly meant the temperature at the midpoint of the melting transition. Take MQKWVLKITGYIYDEDAGDPDNGISPGTKFEELPDDWVAPITGAPKSEFEKLED [C6L C9T C39A C42T A2Q]: the Tm came to 63 °C. Also, under “Urea”, the denaturant m value came out at 0.93 kcal/mol/M, the “denaturant midpoint (higher = more stable)” value (“denaturant midpoint” for short) turned out to be 3.8 M and the unfolding free energy was found to be 14.6 kJ/mol.
Take MAKWVLAITGYIYDEDAGDPDNGISPGTKFEELPDDWVAPITGAPKSEFAKLED [C6L C9T C39A C42T K7A E50A]: the Tm turned out to be 74 °C. For the setting “GdnHCl”, the denaturant m value turned out to be 2.2 kcal/mol/M, the “denaturant midpoint” value turned out to be 1.27 M and the unfolding free energy worked out at 11.7 kJ/mol. Also, where the note is “Urea”, the denaturant m value amounted to 0.84 kcal/mol/M, the “denaturant midpoint” value was determined as 4.5 M and the unfolding free energy amounted to 15.9 kJ/mol.
With MAKWVLKITGYIYDEDAGDPDNGISPGTKFEELPDDWVAPITGAPKSEFAKLED [C6L C9T C39A C42T E50A], the Tm is 77 °C. Where the note is “GdnHCl”, the denaturant m value stood at 2.3 kcal/mol/M, the “denaturant midpoint” value was determined as 1.35 M and the unfolding free energy came to 13 kJ/mol. Moreover, under “Urea”, the denaturant m value came to 0.86 kcal/mol/M, the “denaturant midpoint” value turned out to be 4.8 M and the unfolding free energy worked out at 17.2 kJ/mol.
Consider MAKWVLKITGYIYDEDAGDPDNGISPGTKFEELPDDWVAPITGAPKSEFEKLED [C6L C9T C39A C42T], for which the Tm is 82 °C. Further, under “GdnHCl”, the denaturant m value came to 1.9 kcal/mol/M, the “denaturant midpoint” value came to 1.68 M and the unfolding free energy stood at 13.4 kJ/mol.
Regarding MQKWVLKITGYIYDQDAGDPDNGISPGTKFEELPDDWVAPITGAPKSEFEKLED [C6L C9T C39A C42T A2Q E15Q], the Tm stood at 39 °C. In addition, under “GdnHCl”, the denaturant m value was determined as 3 kcal/mol/M, the “denaturant midpoint” value turned out to be 0.5 M and the unfolding free energy stood at 6.28 kJ/mol. Besides, where the note is “Urea”, the denaturant m value was determined as 1.03 kcal/mol/M, the “denaturant midpoint” value worked out at 2 M and the unfolding free energy amounted to 8.79 kJ/mol.
Consider MQKWVLKITGYIYDTDAGDPDNGISPGTKFEELPDDWVAPITGAPKSEFEKLED [C6L C9T C39A C42T A2Q E15T], for which the Tm was found to be 41 °C. In addition, where the note is “Urea”, the denaturant m value was determined as 1.03 kcal/mol/M, the “denaturant midpoint” value was 1.6 M and the unfolding free energy turned out to be 7.11 kJ/mol.
As to MAKWVLKITGYIYDQDAGDPDNGISPGTKFEELPDDWVAPITGAPKSEFEKLED [C6L C9T C39A C42T E15Q], the midpoint of thermal melting (Tm) amounted to 57 °C. Moreover, under “GdnHCl”, the denaturant m value worked out at 2.5 kcal/mol/M, the “denaturant midpoint” value was 0.63 M and the unfolding free energy amounted to 7.11 kJ/mol. Where the note is “Urea”, the denaturant m value was 0.91 kcal/mol/M, the “denaturant midpoint” value is 3 M and the unfolding free energy came out at 11.3 kJ/mol.
Consider MAKWVLKITGYIYDTDAGDPDNGISPGTKFEELPDDWVAPITGAPKSEFEKLED [C6L C9T C39A C42T E15T], for which the Tm came out at 38 °C. Besides, under “Urea”, the denaturant m value is 0.98 kcal/mol/M, the “denaturant midpoint” value amounted to 1.3 M and the unfolding free energy came to 5.44 kJ/mol.
Turning to MAKWVLAITGYIYDEDAGDPDNGISPGTKFEELPDDWVAPITGAPKSEFEKLED [C6L C9T C39A C42T K7A], the Tm is 74 °C. Besides, for the setting “GdnHCl”, the denaturant m value was determined as 2 kcal/mol/M, the “denaturant midpoint” value came out at 1.6 M and the unfolding free energy is 13.4 kJ/mol. Also, under “Urea”, the denaturant m value was determined as 0.81 kcal/mol/M, the “denaturant midpoint” value was 4.9 M and the unfolding free energy amounted to 16.7 kJ/mol.
